Assay results published in patent US20170369589A1 (INBIOMOTION S L, published 2017).
No end group written: not given here.

Experiments:
[1] = target: T1, c-MAF (Q1): fragment of c-MAF including Aa 19-208 (Homo sapiens (Human), UniProt O75444 19-208); assay: SPR, Biacore T200, 25 C; antibody captured on Protein A, c-MAF (Q1) as analyte at 6.5 nM; single concentration fit, 1:1 model
T1 construct: Recombinant antigen preparation used in SPR; also called c-MAF fragment
T1 sequence: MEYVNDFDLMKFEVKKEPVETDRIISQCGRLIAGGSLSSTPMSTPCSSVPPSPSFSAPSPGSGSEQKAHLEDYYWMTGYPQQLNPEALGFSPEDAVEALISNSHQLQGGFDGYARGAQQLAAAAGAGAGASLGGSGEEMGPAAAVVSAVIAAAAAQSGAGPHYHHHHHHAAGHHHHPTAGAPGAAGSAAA
Experimental: Test measurements were conducted to confirm protein A-binding of the antibody INB-1-11-8 and to select appropriate capture levels for the kinetic measurements of the analyte. A capture level of 240 RU was chosen for the measurement with c-MAF (Q1), resulting in an expected Rmax of ca 64 RU for two 19.6 kDa antigens binding per antibody molecule. To generate sufficiently high binding signals for the peptide, a higher capture level of […] was chosen, also resulting in an expected Rmax of ca 30 RU. Serial dilutions of the antigen were injected for 180 s, followed by a 600 s buffer injection for off-rate determination (see FIG. 6). For the c-MAF fragment the molar concentrations used for the serial dilutions were calculated based on the concentrations determined by CFCA. The kinetic measurements were performed twice to confirm the binding behavior.
Based on this preliminary data, an affinity in the nM-range has been roughly estimated for the interaction. The binding is characterized by a very fast association rate and a fast dissociation rate, i.e. the binding is not very tight.

[2] = target: T2, Peptide 1 (epitope 83-EQKAHLEDYYWMTGYPQQ-100 of c-MAF of human origin) conjugated to BSA (human, also: conjugated to BSA); assay: antigen-specific ELISA: epitope peptide conjugated to BSA on the plate, anti-rabbit secondary antibody conjugated to alkaline phosphatase
T2 construct: also called antigen
T2 peptide: EQKAHLEDYYWMTGYPQQ
Experimental: An Antigen-specific ELISA was used to test the antibody sensitivity for the antigen. To this end, the epitope, Peptide 1, described above, was conjugated to BSA. This was attached to a the plate surface where the ELISA is performed and washed. The INB-1-11-8 c-MAF specific antibody was then applied so that it could bind to the antigen. Following, the incubation time and wash with TBST, a secondary antibody specific for rabbit antibodies and conjugated to Alkaline Phosphatase was used to score binding of the primary antibody to the antigen. Several dilutions were used to test the titer of the antibody, which is an indication of the affinity of the antibody for its antigen (FIG. 3A).

B1: INB-1-11-8 c-MAF specific monoclonal antibody (rabbit) (antibody, V domains shown)
VH: QSLEESGGRLVTPGTPLTLTCTASGFSLNNYPMTWVRQAPGKGLDYIGVINNSGETAYATWAKRRFTISRTSTTLYLKIASPTIEDTATYFCARGGPVSSDMWGPGTLVIVSS
VL: AQVLTQTASPVSAVVGGTVTINCQSSQSVYRGDWLAWYQQRPGQPPKLLIYGASTLASGVPSRFKGSGSGTHFTLTISDLDCDDAATYYCAGGFSGHIYDFGGGTEVVVKG
notes: Rabbit monoclonal antibody; also called Clone ID11-8; antibody INB-1-11-8
B1 showed a Kd [1] of 1.1 nM, a koff [1] of 0.0056 s⁻¹ and a kon [1] of 5.3e+06 M⁻¹ s⁻¹. B1: binds [2].
